Test results reported in the supplement of paper PMC7877785.
± gives the uncertainty stated by the source.

Test: self-splicing fitness, log relative to wild type (ln ratio); higher = more splicing; Tetrahymena group I intron in knt gene, E. coli kanamycin selection, DiMSum; sequences stand for … in CUCUCU…GGAGGGAAAAGUUAUCAGGCAUGCACCUGGUAGCUAGUCUUUAAACCAAUAGAUUGCAUCGGUUUAAAAGGCAAGACCGUCAAAUUGCGGGAAAGGGGUCAACAGCCGUUCAGUACCAAGUCUCAGGGGAAACUUUGAGAUGGCCUUGCAAAGGGUAUGGUAAUAAGCUGACGGACAUGGUCCUAACCACGCAGCCAAGUCCUAAGUCAACAGAUCUUCUGUUGAUAUGGAUGCAGUUCACAGACUAAAUGUCGGUCGGGGAAGAUGUAUUCUUCUCAUAAGAUAUAGUCGGACCUCUCCUUAAUGGGAGCUAGCGGAUGAAGUGAUGCAACACUGGAGCCGCUGGGAACUAAUUUGUAUGCGAAAGUAUAUUGAUUAGUUUUGGAGUACUCGUGGUCG
Procedure, shortened: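 Six replicate transformations of E. coli BL21(DE3) with a pET-22b(+) library were grown overnight at 37°C or 30°C. The library randomised all eight P1ex-region intron nucleotides, the intron lying in the knt kanamycin-resistance gene, and plates were LB agar with or without 25 μg/mL kanamycin plus 100 μg/mL carbenicillin, 50 μM IPTG and 0.2% rhamnose. Pooled colonies were amplicon-sequenced on an Illumina HiSeq 2500, and fitness is the DiMSum error-weighted combination of wild-type-normalised replicate fold changes, kanamycin versus none.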

| Sequence | self-splicing fitness (ln) (30 °C) | self-splicing fitness (ln) (37 °C) |
| --- | --- | --- |
| UUUUAGCAAUAUUACGAUUU | -1.67 ± 0.16 | -0.611 ± 0.21 |
| UUUUAGCAAUAUUACGCAUC | -3.19 ± 0.31 | -2.15 ± 0.23 |
| UUUUAGCAAUAUUACGGAAG | -1.3 ± 0.17 | -0.731 ± 0.19 |
| UUUUAGCAAUAUUACGGCCA | -1.57 ± 0.19 | -0.0772 ± 0.19 |
| UUUUAGCAAUAUUACGGCGC | -1.12 ± 0.29 | -0.567 ± 0.34 |
| UUUUAGCAAUAUUACGGGGU | -1.6 ± 0.22 | -1.08 ± 0.35 |
| UUUUAGCAAUAUUACGGUCG | -0.778 ± 0.2 | -0.345 ± 0.18 |
| UUUUAGCAAUAUUACGGUGG | -1.24 ± 0.084 | -1.16 ± 0.13 |
| UUUUAGCAAUAUUACGUACA | -2.16 ± 0.15 | -0.143 ± 0.2 |
| UUUUAGCAAUAUUACGUAGA | -2.06 ± 0.22 | -0.71 ± 0.24 |
| UUUUAGCAAUAUUACGUCCC |  | -1.78 ± 0.48 |
| UUUUAGCAAUAUUACGUUGC | -2.8 ± 0.43 |  |
